Results taken from article PMC3292258 (Nature, 2012).

Biological target: T1, MBP-YDA (Arabidopsis, UniProt Q9CAD5 1-883)
T1 sequence (looked up): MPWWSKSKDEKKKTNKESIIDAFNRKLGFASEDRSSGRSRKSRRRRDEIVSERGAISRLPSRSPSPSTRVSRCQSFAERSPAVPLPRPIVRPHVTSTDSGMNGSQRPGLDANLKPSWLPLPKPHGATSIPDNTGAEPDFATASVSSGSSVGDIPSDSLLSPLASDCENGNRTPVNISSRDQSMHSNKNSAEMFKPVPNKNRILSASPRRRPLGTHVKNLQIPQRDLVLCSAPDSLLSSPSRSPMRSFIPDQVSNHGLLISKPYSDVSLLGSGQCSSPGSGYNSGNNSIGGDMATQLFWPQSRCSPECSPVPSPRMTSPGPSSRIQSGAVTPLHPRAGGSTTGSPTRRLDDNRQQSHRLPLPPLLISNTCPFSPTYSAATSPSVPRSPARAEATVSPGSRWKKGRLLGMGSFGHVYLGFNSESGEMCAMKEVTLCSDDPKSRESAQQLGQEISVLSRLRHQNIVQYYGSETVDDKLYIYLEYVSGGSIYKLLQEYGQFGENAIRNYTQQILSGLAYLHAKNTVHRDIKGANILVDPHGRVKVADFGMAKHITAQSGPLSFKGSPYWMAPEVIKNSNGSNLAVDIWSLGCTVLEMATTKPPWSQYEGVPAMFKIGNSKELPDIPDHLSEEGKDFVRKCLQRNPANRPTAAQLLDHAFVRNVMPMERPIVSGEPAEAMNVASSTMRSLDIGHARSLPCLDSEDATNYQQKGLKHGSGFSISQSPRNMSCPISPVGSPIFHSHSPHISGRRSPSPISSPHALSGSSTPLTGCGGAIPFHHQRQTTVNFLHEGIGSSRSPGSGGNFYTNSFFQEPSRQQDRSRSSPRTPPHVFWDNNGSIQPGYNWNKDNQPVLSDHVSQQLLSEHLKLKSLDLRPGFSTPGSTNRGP
Assay: far-Western, overlay or dot blot

B1: GST-BIN2 (enzyme, Arabidopsis, UniProt Q39011 1-380, looked up)
chain: MADDKEMPAAVVDGHDQVTGHIISTTIGGKNGEPKQTISYMAERVVGTGSFGIVFQAKCLETGETVAIKKVLQDRRYKNRELQLMRVMDHPNVVCLKHCFFSTTSKDELFLNLVMEYVPESLYRVLKHYSSANQRMPLVYVKLYMYQIFRGLAYIHNVAGVCHRDLKPQNLLVDPLTHQVKICDFGSAKQLVKGEANISYICSRFYRAPELIFGATEYTTSIDIWSAGCVLAELLLGQPLFPGENAVDQLVEIIKVLGTPTREEIRCMNPHYTDFRFPQIKAHPWHKIFHKRMPPEAIDFASRLLQYSPSLRCTALEACAHPFFDELREPNARLPNGRPFPPLFNFKQEVAGSSPELVNKLIPDHIKRQLGLSFLNQSGT
  binding result: binds
